Measurements as given in patent publication US20240376204A1 (JIANGSU HENGRUI PHARMACEUTICALS, published 2024).
Where two headings read alike, the source gives them in different places.

What was measured:
[1] = biological target: T1, human PD-1 expressed on cells (human, UniProt Q15116 25-288); test: cell-based or functional assay
[2] = biological target: T1, human PD-1 expressed on cells; test: cell-based or functional assay; remark: listed apart in the source
[3] = biological target: T2, his-tagged human PVRIG (h-PVRIG-his) recombinant protein (human, UniProt Q6DKI7 41-171, limits assumed); test: ELISA, plate coated with PVRIG protein (his tag)
T2 construct: Acrobiosystems; also called Human PVRIG-his; human PVRIG recombinant protein; not shown: his tag
T2 sequence (looked up): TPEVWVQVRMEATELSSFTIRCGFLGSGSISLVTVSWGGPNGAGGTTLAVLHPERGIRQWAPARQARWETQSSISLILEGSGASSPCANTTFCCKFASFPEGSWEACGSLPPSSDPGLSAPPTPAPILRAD
Protocol: ELISA assays were performed. TIGIT or PVRIG protein (his tag, Acrobiosystems, PVG-H52H4) was dissolved in PBS to 1 μg/mL, and the solution was added to a 96-well plate at 100 μL/well. The plate was coated with the antigen overnight at 4° C. The plate was washed with PBST solution three times. PBST/1% BSA solution was added, and the plate was incubated at 37° C. for 1 h for blocking. After three washes with PBST solution, different concentrations of the trispecific antibodies (diluted with PBST/1% BSA solution) were added, and the plate was incubated at 37° C. for 1.5 h. The plate was washed with PBST solution three times. […] After three washes with PBST solution, TMB solution was added at 100 μL/well. After 5 min of reaction at room temperature, 50 μL of stop solution was added. OD450 values were measured using a microplate reader, and EC₅₀ was calculated.

[4] = biological target: T3, human PVRIG expressed on cells (human, UniProt Q6DKI7 41-326); test: cell-based or functional assay
T3 sequence (looked up): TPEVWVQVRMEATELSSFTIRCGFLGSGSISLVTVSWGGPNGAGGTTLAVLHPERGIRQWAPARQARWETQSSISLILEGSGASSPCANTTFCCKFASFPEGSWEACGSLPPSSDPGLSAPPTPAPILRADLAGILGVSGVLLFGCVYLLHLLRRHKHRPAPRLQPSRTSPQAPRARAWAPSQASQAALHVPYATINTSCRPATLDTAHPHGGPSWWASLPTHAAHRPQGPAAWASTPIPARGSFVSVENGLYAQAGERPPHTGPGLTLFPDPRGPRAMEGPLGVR

[5] = biological target: T3, human PVRIG expressed on cells; test: cell-based or functional assay; remark: listed apart in the source
[6] = biological target: T3, human PVRIG expressed on cells; test: cell-based or functional assay; remark: listed apart in the source
[7] = biological target: T2, his-tagged human PVRIG (h-PVRIG-his) …; test: BLI (Fortebio), antibody on Protein A sensor, his-tagged human PVRIG as analyte
Protocol: A Protein A biosensor (Fortebio, #18-5010) was immersed in 200 μL of KB buffer (PBS, pH 7.4, 0.02% tween-20, 0.10% BSA) for 60 s as a wetting treatment. Then an anti-PVRIG antibody was diluted to 10 μg/mL with KB buffer, and the sensor was immersed in 200 μL of the solution until the reading was 1.2 nm. The sensor was immersed in KB buffer for 100 s to remove excess antibody. […] The sensor was placed in the solution for 300 seconds of binding and then in KB buffer for 600 seconds of dissociation. Fitting was performed using a dynamic 1:1 binding mode.

[8] = biological target: T4, human TIGIT expressed on cells (human, UniProt Q495A1 22-244); test: FACS by the method of Example 2-2 with human TIGIT; numbers not given
T4 construct: whole, on cells; also called cells overexpressing human TIGIT; CHO-K1 cell strain expressing the human TIGIT gene
T4 sequence (looked up): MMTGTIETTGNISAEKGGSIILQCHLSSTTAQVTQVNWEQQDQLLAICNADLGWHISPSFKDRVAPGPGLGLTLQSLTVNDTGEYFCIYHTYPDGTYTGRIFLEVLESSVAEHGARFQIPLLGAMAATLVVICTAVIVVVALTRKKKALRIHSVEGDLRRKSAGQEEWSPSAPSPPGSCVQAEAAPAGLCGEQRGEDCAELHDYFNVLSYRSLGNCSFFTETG

[9] = biological target: T5, human TIGIT recombinant protein (human, UniProt Q495A1 22-141); test: ELISA by the method of Example 2-2 with human TIGIT; numbers not given
T5 construct: also called human TIGIT antigen (AcroBiosystem, TIT-H52H3); TIGIT protein
T5 sequence (looked up): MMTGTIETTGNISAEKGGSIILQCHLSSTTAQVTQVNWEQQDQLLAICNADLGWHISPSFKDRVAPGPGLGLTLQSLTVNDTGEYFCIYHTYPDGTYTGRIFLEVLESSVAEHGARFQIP

T1 sequence (Q15116 25-288 limits assumed): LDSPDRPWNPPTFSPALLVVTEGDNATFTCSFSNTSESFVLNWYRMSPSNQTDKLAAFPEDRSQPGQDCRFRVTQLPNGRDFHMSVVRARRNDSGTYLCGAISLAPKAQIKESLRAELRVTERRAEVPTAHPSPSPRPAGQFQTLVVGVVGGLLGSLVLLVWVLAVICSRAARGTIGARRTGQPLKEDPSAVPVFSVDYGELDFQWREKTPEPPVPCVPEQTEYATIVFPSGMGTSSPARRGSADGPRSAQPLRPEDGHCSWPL

B1: A17h1-1708-151H7-D (trispecific antibody, human IgG4 S228P, kappa)
heavy: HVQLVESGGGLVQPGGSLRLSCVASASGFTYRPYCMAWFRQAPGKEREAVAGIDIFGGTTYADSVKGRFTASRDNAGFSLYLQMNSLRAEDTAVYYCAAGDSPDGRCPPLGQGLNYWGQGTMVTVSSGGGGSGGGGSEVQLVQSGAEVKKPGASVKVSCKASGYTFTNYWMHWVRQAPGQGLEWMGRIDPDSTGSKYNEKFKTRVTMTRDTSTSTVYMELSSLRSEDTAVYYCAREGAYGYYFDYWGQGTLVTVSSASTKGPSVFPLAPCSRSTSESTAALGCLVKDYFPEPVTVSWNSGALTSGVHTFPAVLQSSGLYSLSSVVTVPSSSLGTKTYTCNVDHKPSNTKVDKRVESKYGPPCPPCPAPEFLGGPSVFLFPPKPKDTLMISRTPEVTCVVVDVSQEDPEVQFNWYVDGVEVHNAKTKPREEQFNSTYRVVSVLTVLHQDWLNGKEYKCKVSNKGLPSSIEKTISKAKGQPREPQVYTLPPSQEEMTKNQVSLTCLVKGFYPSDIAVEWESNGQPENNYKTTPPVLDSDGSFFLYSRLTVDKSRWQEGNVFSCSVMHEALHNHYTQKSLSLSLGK
light: DIQMTQSPSSLSASVGDRVTITCRASENIYSYLAWYQQKPGKSPKLLIYNARTLAEGVPSRFSGSGSGTDFTLTISSLQPEDFATYYCQYHSGSPLPFGGGTKVEIKRTVAAPSVFIFPPSDEQLKSGTASVVCLLNNFYPREAKVQWKVDNALQSGNSQESVTEQDSKDSTYSLSSTLTLSKADYEKHKVYACEVTHQGLSSPVTKSFNRGECGGGGSGGGGSEVQLQESGGGLVQPGGSLRLSCTASGLTFSDYSMSWYRQAPGKGRELVAIISGSGVIAHYVDSVKGRFTISRDNSKNTVYLQMRSLTPEDRAVYYCRAVSDWDDYWGQGTQVTVSS
IC50 (read off the curve) [1]: ~1 nM
DC:T MLR result, 0.1 nM antibody (unit not given) [2]: 84.8
DC:T MLR result, 1 nM antibody (unit not given) [2]: 97.3
DC:T MLR result, 10 nM antibody (unit not given) [2]: 137
DC:T MLR result, 100 nM antibody (unit not given) [2]: 149
EC50 [3]: 0.158 nM

B2: Tab5 (antibody, human IgG4 S228P, kappa, F234A L235A, V domains shown)
VH: EVQLVESGGGVVKPGGSLRLSCAASGFTFGTSSMNWVRQAPGKGLEWVAVISFDGTEIHYADSVKGRFTISRDNSKSTVFLQMNSLRPDDTALYYCAKGSGNIYFYSGMDVWGQGTTVTVSS
VL: DIQMTQSPSTLSASVGDRVTITCRAGQSISGWLAWFQQKPGKAPNLLIYETSTLESGVPSRFSGSGSGTEYTLTISSLQPDDFATYYCQQYYSYPLTFGQGTKVEIKR
notes: Anti-PVRIG positive control, IgG4 S228P/F234A/L235A/K447A; also called positive antibody Tab5; CPA.7.021 variable regions on human IgG4/kappa
IFNγ, mixed lymphocyte reaction, 4 nM antibody [4]: 912 pg/mL
IFNγ, mixed lymphocyte reaction, 20 nM antibody [4]: 1420 pg/mL
IFNγ, mixed lymphocyte reaction, 100 nM antibody [4]: 2350 pg/mL
PVRIG reporter gene cell activity EC50 [5]: 0.74 nM
PVRIG reporter gene cell activity EC50 [6]: 1.38 nM
kon [7]: 737000 M⁻¹ s⁻¹

B3: A17h1-1708-151H7-A (trispecific antibody, human IgG4 S228P, kappa)
heavy: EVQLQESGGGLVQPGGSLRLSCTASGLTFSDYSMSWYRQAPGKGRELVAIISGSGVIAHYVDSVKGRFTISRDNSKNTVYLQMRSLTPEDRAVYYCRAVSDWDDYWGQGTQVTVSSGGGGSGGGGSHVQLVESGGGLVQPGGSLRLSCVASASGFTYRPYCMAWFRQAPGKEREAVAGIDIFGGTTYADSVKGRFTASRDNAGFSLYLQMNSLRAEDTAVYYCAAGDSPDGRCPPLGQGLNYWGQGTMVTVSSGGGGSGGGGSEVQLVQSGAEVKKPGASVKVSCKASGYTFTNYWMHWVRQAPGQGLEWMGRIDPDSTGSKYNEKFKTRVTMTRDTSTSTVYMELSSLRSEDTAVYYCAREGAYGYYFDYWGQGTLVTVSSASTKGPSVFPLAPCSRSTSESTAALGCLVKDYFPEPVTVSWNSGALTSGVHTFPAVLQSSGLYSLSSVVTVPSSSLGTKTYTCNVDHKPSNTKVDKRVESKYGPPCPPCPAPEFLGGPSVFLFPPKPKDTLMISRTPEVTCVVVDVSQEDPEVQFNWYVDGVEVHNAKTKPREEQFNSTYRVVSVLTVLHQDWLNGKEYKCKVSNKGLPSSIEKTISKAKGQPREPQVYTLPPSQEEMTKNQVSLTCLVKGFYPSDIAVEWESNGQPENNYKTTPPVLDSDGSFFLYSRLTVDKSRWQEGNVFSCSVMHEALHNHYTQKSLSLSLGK
light: DIQMTQSPSSLSASVGDRVTITCRASENIYSYLAWYQQKPGKSPKLLIYNARTLAEGVPSRFSGSGSGTDFTLTISSLQPEDFATYYCQYHSGSPLPFGGGTKVEIKRTVAAPSVFIFPPSDEQLKSGTASVVCLLNNFYPREAKVQWKVDNALQSGNSQESVTEQDSKDSTYSLSSTLTLSKADYEKHKVYACEVTHQGLSSPVTKSFNRGEC
IC50 (read off the curve) [1]: ~0.9 nM
DC:T MLR result, 0.1 nM antibody (unit not given) [2]: 91.3
DC:T MLR result, 1 nM antibody (unit not given) [2]: 121
DC:T MLR result, 10 nM antibody (unit not given) [2]: 147
DC:T MLR result, 100 nM antibody (unit not given) [2]: 155
EC50 [3]: 0.0952 nM

B4: 1708-151-1 (bispecific antibody, human IgG4 S228P, kappa)
heavy: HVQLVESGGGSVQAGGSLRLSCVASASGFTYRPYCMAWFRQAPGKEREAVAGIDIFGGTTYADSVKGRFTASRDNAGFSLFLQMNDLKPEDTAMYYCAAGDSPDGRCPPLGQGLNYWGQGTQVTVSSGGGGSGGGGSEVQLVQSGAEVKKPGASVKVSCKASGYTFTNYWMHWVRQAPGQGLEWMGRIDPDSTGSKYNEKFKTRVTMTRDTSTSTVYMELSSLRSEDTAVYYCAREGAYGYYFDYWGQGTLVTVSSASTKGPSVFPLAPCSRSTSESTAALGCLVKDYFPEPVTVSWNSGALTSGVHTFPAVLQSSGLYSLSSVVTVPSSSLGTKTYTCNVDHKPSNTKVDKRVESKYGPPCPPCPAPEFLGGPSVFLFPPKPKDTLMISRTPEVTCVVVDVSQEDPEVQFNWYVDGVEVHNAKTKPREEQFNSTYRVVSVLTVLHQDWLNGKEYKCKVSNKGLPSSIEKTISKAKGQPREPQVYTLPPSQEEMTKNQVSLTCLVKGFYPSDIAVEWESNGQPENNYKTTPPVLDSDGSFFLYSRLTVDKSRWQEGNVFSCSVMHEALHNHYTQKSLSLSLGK
light: B3 light
notes: Anti-PVRIG/TIGIT
binding result [8]: binds
binding result [9]: binds

B5: 1708-151-2 (bispecific antibody, human IgG4 S228P, kappa)
heavy: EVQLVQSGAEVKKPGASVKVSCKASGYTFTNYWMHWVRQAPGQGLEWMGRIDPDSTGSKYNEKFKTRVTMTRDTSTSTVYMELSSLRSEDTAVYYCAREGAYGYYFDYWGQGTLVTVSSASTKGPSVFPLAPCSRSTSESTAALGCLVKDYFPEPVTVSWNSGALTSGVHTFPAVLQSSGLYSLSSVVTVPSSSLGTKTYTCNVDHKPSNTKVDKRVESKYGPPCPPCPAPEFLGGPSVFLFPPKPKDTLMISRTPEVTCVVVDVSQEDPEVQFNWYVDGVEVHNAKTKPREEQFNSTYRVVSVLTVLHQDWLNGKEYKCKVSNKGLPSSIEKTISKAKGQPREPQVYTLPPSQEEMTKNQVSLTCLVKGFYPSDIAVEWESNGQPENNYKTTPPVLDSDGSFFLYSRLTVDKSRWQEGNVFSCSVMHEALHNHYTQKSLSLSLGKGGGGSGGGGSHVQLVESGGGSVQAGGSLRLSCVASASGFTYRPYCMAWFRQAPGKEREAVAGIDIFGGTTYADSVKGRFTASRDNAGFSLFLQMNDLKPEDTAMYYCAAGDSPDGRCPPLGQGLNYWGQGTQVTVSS
light: B3 light
notes: Anti-PVRIG/TIGIT
binding result [8]: binds
binding result [9]: binds

B6: 1708-151-3 (bispecific antibody, human IgG4 S228P, kappa)
heavy: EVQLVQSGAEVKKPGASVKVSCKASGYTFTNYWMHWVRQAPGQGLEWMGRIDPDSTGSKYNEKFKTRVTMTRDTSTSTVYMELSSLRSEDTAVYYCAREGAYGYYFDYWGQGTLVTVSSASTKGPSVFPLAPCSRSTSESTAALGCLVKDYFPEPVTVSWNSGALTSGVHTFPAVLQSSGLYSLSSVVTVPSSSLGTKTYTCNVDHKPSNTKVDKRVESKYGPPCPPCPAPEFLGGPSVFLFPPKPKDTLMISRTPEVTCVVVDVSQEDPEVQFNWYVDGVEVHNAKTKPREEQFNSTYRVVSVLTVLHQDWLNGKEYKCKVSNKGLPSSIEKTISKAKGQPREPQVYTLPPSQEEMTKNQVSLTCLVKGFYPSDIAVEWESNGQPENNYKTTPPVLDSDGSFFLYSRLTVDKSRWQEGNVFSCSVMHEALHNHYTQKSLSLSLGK
light: HVQLVESGGGSVQAGGSLRLSCVASASGFTYRPYCMAWFRQAPGKEREAVAGIDIFGGTTYADSVKGRFTASRDNAGFSLFLQMNDLKPEDTAMYYCAAGDSPDGRCPPLGQGLNYWGQGTQVTVSSGGGGSGGGGSDIQMTQSPSSLSASVGDRVTITCRASENIYSYLAWYQQKPGKSPKLLIYNARTLAEGVPSRFSGSGSGTDFTLTISSLQPEDFATYYCQYHSGSPLPFGGGTKVEIKRTVAAPSVFIFPPSDEQLKSGTASVVCLLNNFYPREAKVQWKVDNALQSGNSQESVTEQDSKDSTYSLSSTLTLSKADYEKHKVYACEVTHQGLSSPVTKSFNRGEC
notes: Anti-PVRIG/TIGIT
binding result [8]: binds
binding result [9]: binds

B7: 1708-151-4 (bispecific antibody, human IgG4 S228P, kappa)
heavy: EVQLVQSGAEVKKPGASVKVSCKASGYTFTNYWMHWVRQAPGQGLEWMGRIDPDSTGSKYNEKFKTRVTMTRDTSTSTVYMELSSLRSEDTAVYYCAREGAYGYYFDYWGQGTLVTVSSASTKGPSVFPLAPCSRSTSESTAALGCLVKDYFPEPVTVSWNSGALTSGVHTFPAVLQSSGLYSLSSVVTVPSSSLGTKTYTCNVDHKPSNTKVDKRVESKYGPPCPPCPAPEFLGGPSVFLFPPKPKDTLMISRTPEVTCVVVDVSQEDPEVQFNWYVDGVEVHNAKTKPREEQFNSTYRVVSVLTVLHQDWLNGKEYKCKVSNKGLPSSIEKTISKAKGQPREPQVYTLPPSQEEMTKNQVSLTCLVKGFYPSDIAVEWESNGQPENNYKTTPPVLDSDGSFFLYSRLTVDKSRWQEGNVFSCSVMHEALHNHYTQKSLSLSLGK
light: DIQMTQSPSSLSASVGDRVTITCRASENIYSYLAWYQQKPGKSPKLLIYNARTLAEGVPSRFSGSGSGTDFTLTISSLQPEDFATYYCQYHSGSPLPFGGGTKVEIKRTVAAPSVFIFPPSDEQLKSGTASVVCLLNNFYPREAKVQWKVDNALQSGNSQESVTEQDSKDSTYSLSSTLTLSKADYEKHKVYACEVTHQGLSSPVTKSFNRGECGGGGSGGGGSHVQLVESGGGSVQAGGSLRLSCVASASGFTYRPYCMAWFRQAPGKEREAVAGIDIFGGTTYADSVKGRFTASRDNAGFSLFLQMNDLKPEDTAMYYCAAGDSPDGRCPPLGQGLNYWGQGTQVTVSS
notes: Anti-PVRIG/TIGIT
binding result [8]: binds
binding result [9]: binds
